Results from patent US10772972B2, “Anti-STEAP2 antibody drug conjugates, and compositions and uses thereof” (Regeneron Pharmaceuticals, Inc., priority 2016, dated 2020).
Where “and” joins values, the source holds several entries; their conditions need not be identical. Equal entries are not always repeated.

Assays:
[1] = test system: Raji cells (STEAP2 negative); assay: FACS binding to STEAP2-negative Raji cells; conditions: human-Fc antibodies
Experimental: (§1) The ability of anti-STEAP2 antibodies to selectively bind to human six-transmembrane epithelial antigen of prostate 2 (STEAP2) endogenously expressing cell lines was determined via FACS analysis.
(§2) Briefly, 1×10^5 cells were incubated with 10 μg/ml of anti STEAP2 antibodies, or isotype control antibodies for 30 min on ice in antibody dilution buffer. Following one wash with antibody dilution buffer, cells were incubated with 10 μg/ml of PE conjugated anti-human or anti mouse Fc secondary antibodies for 30 min on ice. Following one additional wash, samples were incubated with Cytofix (1% formaldehyde) for 20 minutes. After one final wash, samples were filtered through a Pall 96 well filtration block, run on a Hypercyt® cytometer and analyzed in ForeCyt™ (IntelliCyt, Albuquerque, N. Mex.). Mean fluorescence intensities (MFI) were expressed as fold change above unstained levels (background). The average fold above background at antibody concentrations of 100-300 nM were determined. For cell binding EC50 determinations, mAb concentrations ranged from 300 nM to […] and EC50 values were determined from a four-parameter logistic equation over a 12-point response curve (GraphPad Prism).

[2] = test system: FADU cells (STEAP2 negative); assay: FACS binding to STEAP2-negative FADU cells; conditions: human-Fc antibodies
Experimental: as §1, §2

[3] = test system: human prostate cancer C4-2 cells (xenograft); assay: C4-2/human PBMC co-implant xenograft in NSG mice, immediate dosing; type: in vivo, mouse; conditions: C4-2/NSG
Source text: To assess the in vivo efficacy of the anti-STEAP2/anti-CD3 bispecifics in human tumor xenograft studies, NOD scid gamma (NSG) mice (Jackson Laboratories, Bar Harbor, Me.) were co-implanted with human peripheral blood mononuclear cells (PBMCs; ReachBio LLC., Seattle, Wash.) along with human prostate cancer C4-2 cells (MD Anderson Cancer Center, Houston Tex.) which endogenously express STEAP2.
Briefly, 5.0×10^6 C4-2 cells were co-implanted subcutaneously (s.c.) with 1.25×10^6 human PBMCs in a 50:50 mix of matrigel matrix (BD Biosciences, San Jose, Calif.) into the right flank of male NSG mice. Mice were treated intraperitoneally (i.p.) on the day of implantation (immediate treatment model) with anti-STEAP2/anti-CD3 bispecifics BSSTEAP2/CD3-001, BSSTEAP2/CD3-002 or BSSTEAP2/CD3-003, or an isotype control, at a dose of 0.1 or 0.01 mg/kg (N=5 mice/group).
Tumor size was measured 2×/week using calipers and tumor volume calculated as Volume=(length×width^2)/2. Data is shown as tumor size (mm^3) at study endpoint, 46 d post-tumor implantation (Table 7).

cynomolgus T cells = assay: FACS binding titration of STEAP2xCD3 bispecifics on cynomolgus T cells; conditions: 66.6 nM to 0.001 nM, 30 minutes at 4° C.
Experimental: FACS Binding Titration on Jurkat Cells, PC3_STEAP2/1 Cells and cynomolgus T Cells: Flow cytometric analysis was utilized to determine binding of STEAP2×CD3 bispecific antibodies to Jurkat, PC3_STEAP2/1 chimeric and cynomolgus T cells, followed by detection with a phycoerythrin (PE)-labeled anti-human IgG antibody. Briefly, 2×10^5 cells/well were incubated for 30 minutes at 4° C. with a serial dilution of STEAP2×CD3 bispecific antibodies or control antibody (a human IgG1 antibody that binds a feline antigen with no cross-reactivity to STEAP2 or human or cynomolgus CD3) ranging from 66.6 nM to 0.001 nM. After incubation, the cells were washed twice with cold PBS containing 1% filtered FBS and a PE-conjugated anti-human secondary antibody was added to the cells and incubated for an additional 30 minutes. Wells containing no antibody or secondary antibody only were used as a control. After incubation, cells were washed, re-suspended in 200 μL cold PBS containing 1% filtered FBS and analyzed by flow cytometry on a BD FACS Canto II.

monkey PBMCs = assay: T cell proliferation assay, cynomolgus PBMC; type: cell-based; conditions: for Cynomolgus PBMC proliferation activity (in words): across donors tested
Experimental: Thawed human or freshly isolated monkey PBMCs (50,000 cells/well) were incubated with 3-fold (human, concentration range: 5E-10M to 2.82E-15M; cynomolgus, concentration range: 1E-09M to 4.57E-13M) serial dilutions of STEAP2×CD3 bispecifics or isotype control in complete medium (RPMI supplemented with 10% FBS, 100 U/mL penicillin, 100 μg/mL streptomycin, 292 μg/mL L-glutamine) and a fixed concentration (human: 200 ng/mL, cyno: 500 ng/mL) of a commercial anti-CD28 antibody (Biolegend, Catalog #302914) in white flat bottom 96-well plates for 72 hours at 37° C. Isolated monkey PBMCs were from two donors (identified as mk8781M or mk9381M). Following incubation, CellTiter Glo® (Promega, Cat #7573) was added and luminescence, as readout for cell viability, was measured using a VICTOR X5 multi-label plate reader. Cell titer was calculated by dividing the luminescence of stimulated cells by the baseline luminescence of unstimulated cells.

[4] = test system: C4-2 cells (high-STEAP2 expressing); assay: Internalization and total binding on C4-2 cells (imaging, qualitative score); type: cell-based, human; design: key: − (no internalization or binding); +(weak internalization or binding); ++(moderate internalization or binding); +++(robust internalization or binding); conditions: 10 μg/ml antibody
Experimental: Briefly, 20,000 C4-2 cells were seeded in PDL coated 96 well plates. The next day, cells were incubated with anti-human STEAP2 antibodies (10 μg/ml) for 30 min on ice followed by two PBS washes. Cells were then incubated with alexa488-conjugated anti-hFc Fab secondary antibody for 30 minutes on ice, followed by two additional PBS washes. Antibodies were allowed to internalize for 1 h at 37° C. in internalization buffer (PBS+2% FBS) or were maintained at 4° C. Cells were fixed in 4% formaldehyde, nuclei were stained with DRAQ5 (Cell signaling), and images were acquired on the ImageXpress micro XL (Molecular Devices).
A qualitative visual assessment of the total binding intensity and the intensity of antibodies that had internalized into vesicles was performed and scored according to the following criteria: − (no internalization or binding), +(weak internalization or binding), ++(moderate internalization or binding) and +++(robust internalization or binding).

B1: H1H7810N: human-Fc anti-STEAP2 antibody; variable regions presumably as H2M7810N (antibody, V domains shown)
VH: QVQLVESGGGVVQPGRSLRLSCAVSGFTSSTYGMNWVRQAPGKGLEWVAVISYDGSNKYYADSVKGRFTISRDNSKNTLYLQMNSLRPEDTAVYYCARGRYFDLWGRGTLVTVSS
VL: DIQMTQSPSTLSASVGDRVTITCRASQIISSWLAWYQQKPGKAPKLLIYKASSLASGVPSRFSGSGSGTEFTLTISSLQPDDFATYYCQQYKSYSYTFGQGTKLEIK
- Raji Avg F.A.B (Fold Above Background) [1]: 2 fold

B2: H1H7811N: human-Fc anti-STEAP2 antibody; variable regions presumably as H2M7811N (antibody, V domains shown)
VH: QVQLVESGGGVVQPGRSLRLSCAVSGFTSSTYGMNWVRQAPGKGLEWVAVISFDGSNKYYADSVKGRFTISRDNSKNTLYLQMSSLRPEDTAVYYCARGRYFDLWGRGTLVTVSS
VL: DTQMTQSPSTLSASVGDRVTITCRASQIISSWLAWYQQKPGKAPKLLIYKASSLASGVPSRFSGSGSGTEFTLTISSLQPDDFATYYCQQYKSYSYTFGQGTNLEIK
- FADU Avg F.A.B (Fold Above Background) [2]: 3 fold
- Raji Avg F.A.B (Fold Above Background) [1]: 4 fold

B3: BSSTEAP2/CD3-001: STEAP2×CD3 bispecific: anti-STEAP2 HCVR H2M11162N (SEQ 250), anti-CD3 HCVR CD3-VH-G (SEQ 1730), common LCVR SEQ 258 (antibody, V domains shown)
VH 1: QVQLQQSGPGLVKPSQTLSLTCAISGDSVSSNRAAWNWIRQSPSRGLQWLGRTYYRSKWYNDYAVSLRSRITINPVTSKNQVALHMNSVTPEDTAVYYCARAGIVVVPGPETFYYYDHGLDVWGQGTTVTVSS
VH 2: EVQLVESGGGLVQPGRSLRLSCAASGFTFDDYSMHWVRQAPGKGLEWVSGISWNSGSKGYADSVKGRFTISRDNAKNSLYLQMNSLRAEDTALYYCAKYGSGYGKFYHYGLDVWGQGTTVTVSS
VL: DIQMTQSPSSLSASVGDRVTITCRASQSIRSYLNWYQQKPGKAPELLIHAASSLQSGVPSRFSGSGSGTDFTLTISSLQPEDFASYYCQQSYSAPPITFGQGTRLEIK
- Tumor Size (mm^3) 46 d post-tumor implantation (mean ± SD) ([3]; 0.01 mg/kg i.p. on day of implantation): 23.0 ± 220 mm^3
- Tumor Size (mm^3) 46 d post-tumor implantation (mean ± SD) ([3]; 0.1 mg/kg i.p. on day of implantation): 18.0 ± 14.0 mm^3
- Tumor growth compared to isotype control at study endpoint (in words) ([3]; 0.1 or 0.01 mg/kg): significantly suppressed tumor growth
- EC50 (cynomolgus T cells): 7.27 nM
- Cynomolgus PBMC proliferation activity (in words) (monkey PBMCs): induced robust cynomolgus PBMC proliferation in all donors tested
- EC50 (monkey PBMCs; donor mk9381M, anti-CD28 500 ng/mL, 72 hours, read-out: Cyno PBMC Proliferation [M] (donor)): 4.6e-12 M and 4.59e-12 M

B4: BSSTEAP2/CD3-007: STEAP2×CD3 bispecific: anti-STEAP2 H1H11162 (SEQ 250), anti-CD3 H1H7195P (SEQ 1450), common LCVR SEQ 258 (antibody, V domains shown)
VH 1: QVQLQQSGPGLVKPSQTLSLTCAISGDSVSSNRAAWNWIRQSPSRGLQWLGRTYYRSKWYNDYAVSLRSRITINPVTSKNQVALHMNSVTPEDTAVYYCARAGIVVVPGPETFYYYDHGLDVWGQGTTVTVSS
VH 2: EVQLVESGGGLVQPGRSLRLSCAASGFTFADYTMHWVRQAPGKGLEWVSDISWNSGSIAYADSVKGRFTISRDNAKNSLYLQMNSLRTEDTAFYYCAKDSRGYGHYKYLGLDVWGQGTTVTVSS
VL: DIQMTQSPSSLSASVGDRVTITCRASQSIRSYLNWYQQKPGKAPELLIHAASSLQSGVPSRFSGSGSGTDFTLTISSLQPEDFASYYCQQSYSAPPITFGQGTRLEIK
- EC50 (cynomolgus T cells): 17.3 nM
- Cynomolgus PBMC proliferation activity (in words) (monkey PBMCs): donor dependent

B5: BSSTEAP2/CD3-009: STEAP2×CD3 bispecific: anti-STEAP2 H1H11164 (SEQ 282), anti-CD3 H1H7208P (SEQ 1490), common LCVR SEQ 290 (antibody, V domains shown)
VH 1: QVQLQQSGPGLVKPSQTLSLTCVISGDSVSTNSAAWNWIRQSPSRGLEWLGRTYYRSKWYNDYAVSVRSRITINPVTSKNQVALHLNSVTPEDTAVYYCARAGIVVVPGPETYYYYYHGLDVWGQGTTVTVSS
VH 2: QVQLVESGGGLVHPGRSLRLSCAASGFKFDDYTMHWVRQAPGKGLEWVSDISWNSGSKGYADSVKGRFTISRDNAKDSLYLQMDSLRAADTAFYYCAKDKSGYGHFYYYAMDVWGQGTTVTVSS
VL: DIQMTQSPSSLSASVGDRVTITCRASQNIRSYLNWYQQKPGKAPKLLIHVASSLQSGVPSRFSGSGSGTDFTLTISSLQPEDFATYYCQQSYSTPPITFGHGTRLEIK
- Cynomolgus T cells EC50 [M] (cynomolgus T cells): No Binding
- Cynomolgus PBMC proliferation activity (in words) (monkey PBMCs): no activity

B6: BSSTEAP2/CD3-005: STEAP2×CD3 bispecific: anti-STEAP2 H1H11162 (SEQ 250), anti-CD3 H1H7208P (SEQ 1490), common LCVR SEQ 258 (antibody, V domains shown)
VH 1: QVQLQQSGPGLVKPSQTLSLTCAISGDSVSSNRAAWNWIRQSPSRGLQWLGRTYYRSKWYNDYAVSLRSRITINPVTSKNQVALHMNSVTPEDTAVYYCARAGIVVVPGPETFYYYDHGLDVWGQGTTVTVSS
VH 2: QVQLVESGGGLVHPGRSLRLSCAASGFKFDDYTMHWVRQAPGKGLEWVSDISWNSGSKGYADSVKGRFTISRDNAKDSLYLQMDSLRAADTAFYYCAKDKSGYGHFYYYAMDVWGQGTTVTVSS
VL: DIQMTQSPSSLSASVGDRVTITCRASQSIRSYLNWYQQKPGKAPELLIHAASSLQSGVPSRFSGSGSGTDFTLTISSLQPEDFASYYCQQSYSAPPITFGQGTRLEIK
- Cynomolgus T cells EC50 [M] (cynomolgus T cells): No Binding
- Cynomolgus PBMC proliferation activity (in words) (monkey PBMCs): no activity

B7: H1H11164N: human-Fc anti-STEAP2 antibody, HCVR/LCVR SEQ ID NOs 282/290 (antibody, V domains shown)
VH: QVQLQQSGPGLVKPSQTLSLTCVISGDSVSTNSAAWNWIRQSPSRGLEWLGRTYYRSKWYNDYAVSVRSRITINPVTSKNQVALHLNSVTPEDTAVYYCARAGIVVVPGPETYYYYYHGLDVWGQGTTVTVSS
VL: DIQMTQSPSSLSASVGDRVTITCRASQNIRSYLNWYQQKPGKAPKLLIHVASSLQSGVPSRFSGSGSGTDFTLTISSLQPEDFATYYCQQSYSTPPITFGHGTRLEIK
modifications: human Fc
- FADU Avg F.A.B (Fold Above Background) [2]: 3 fold
- Internalization (37° C., 1 h) Qualitative Score [4]: +++
- Total Binding (4° C.) Qualitative Score [4]: +++
